Assay [1] deals with CheY2-T25 (P. aeruginosa). The assay can be described thus: two-hybrid.
Assay [2] has as its target T25-CheY2 (P. aeruginosa). The assay can be described thus: two-hybrid.

From paper PMC7897226 come the findings set out here.

The molecule T18-CheA2 (enzyme) displayed a fold β-galactosidase activity over controls in assay [1] of 34 fold.

B1: CheD_(1–200)-T18 (natural protein)
chain: MNLQAREGAPLNRYYDPYFACDAVKLLPGEYFASGEDLVIVTVLGSCVSVCLRDPLNGIAGMNHFMLPERGLGGDPASPSARYGSHAMELLINRMLALGASRERLQAKVFGGGSVLRQISAAIGQRNVEFTLDYLATERIPLLASDVLEAFPRKIYFFPRNGRVLVKSLVELKNDTVLQRERDYRRRIDRNADGGPIDLF
B1 came in with a fold β-galactosidase activity over control in assay [2] of 15 fold.
